The values that follow come from the NTF2 design screens of Basanta et al. (2020).

The nature of the data set: protease stability score; higher = more stable; yeast display proteolysis, trypsin and chymotrypsin.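 Note: relative to predicted unfolded state with 0 unfolded-like and 1 meaning tenfold more protease.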
The sequence “SDDERLAHHLVELLLHNIETGDFRMLMHLIDPNVRIDINGVEIHGREEWHKHLRTLGFDHFELHIDSIDAFDGKVIVHTTIRIKYNGVHFEKKTHLIAEKFDGRWYMREIRER” came in with a protease stability score of 1.55.

“SDDERMLHLLIKILIRAIQTGDEDTLLRQVDPHVRIDIDGRDIVGREDLIEFAKHWRFELREVNIRHMEIYGEYIHAEVEVRGKIIIGDKEVETTVDTRHIILKINGRWFFHSISVK” registered a protease stability score of 1.26.

“SDDHEEAKEALRLWVEDLLTGDEDRLRELVDPNARIEIIVNGRTIEYHGRDRVNKWTSFVLLRLGVKHSHVHEIRLIDGRVHNDLRIHQGDKDQILHLSFEKINGKWTLREVKISVV” yielded a protease stability score of 1.39.

“SDDHHKAKLFNEWFKQHFDTGDEHLYKRLADPNVRIHINGVDIVGRELATHLLSHIRITHFEVHDHKVQGNKVHTDGRVHGDVNGVEERVYVELVIEKIDGRWLNHQEIWV” had a protease stability score of 0.332.

Take “SDEDEDARRVMELLLELFETGNWRELSKLADPHVRMEIDGQDFHGRELFEHFVRELIEKFKGAKLELRVHTLDLINGVMYSDIHIHLNVNGRKLDIRSHFRILKIDGRWLTRSFHFK”: the protease stability score was 1.25.

Turning to “SDEDEEMRELMERIHHAIKTGDEDLLHHMFDPNARVDIDGQIWHGREWEHFFLRKFKGLRIEIKRVHVQGDKIHFRGLDEINGVKFDSHLIIIIVNGKTHAIEIDHR”, the protease stability score worked out at 1.53.

Turning to “SDEDEISKHWVELLVEHIKTGDEDFLFKMFDPNVRVIIGDKIMHGRETLLDLIEKELKEAGITRFSMNLHHVDTQGDKAHSNMILDVNGVYRNVRVHFEKIDGKWHMHTWEER”, the protease stability score is 1.99.

In turn, “SDEDHEAHRMMRLFFEAQRTGDEHLVRKLVDPDVRTFYGEKHMHGRRHHVEILLEIRIHRLTITELRVYGEKVRMDIRVDEQIGDKRREVRFELHLVVIDGVLKVVSIDME” yielded a protease stability score of 0.92.

Turning to “SDEDHSSHLAHRWLLEILETGDEERLLRLADPNYRLDVDGRRFIGREDLLRWMKHVVERADHIELRDHHVDNQGDKVSSDVIVNERFDGKTERYRTHIVINKFDGKWVFHRFKIK”, the protease stability score worked out at 0.928.

The sequence “SDEDKELEHVMKKFEDALSTGDENTLYSLLDPNVKLEIGDKEIHGMEEFVRVMKRHLHELGAKFRSITIEHWNIIGEKVRLHSKIILDFNGRDIFLNTHIVMFKFDGRWIFETFKIQ” registered a protease stability score of 2.23.

“SDEDRLNYEIAKYLLDSLRTGDWHTFRRMADPHVKIRTVINGQELRMHGMEDLMERWKLLGFDHTRVHVEHIEIQGDKAHVRGTVKININGQEHTYETDLDVQIVNGRVESINFNWL” gave a protease stability score of 1.14.

Turning to “SDEEDHWHELLERIVRLLMTGDEKTLNKLFDPNMRIIIIIGDKEIRLHGRHKFEKWVRDFLNKFKNVKIEIDDHRAVNGVVQIDGTLFIDGREHHVENNFFIVNGRITEIQIHIK”, the protease stability score was 1.28.

“SDEEDTLESVYKLLEHIERTGDWRIWKELADPNVRVELHVNGVEITDHGREAVERLMLKFGVDHIHFKDFDHRTYNGVVHIQEDIVLNINGREIRTKREISADKVNGKWVFRSVRMKID” had a protease stability score of 1.69.

On to “SDEEEDIERAIRLMHEIHETGDESVWEHLADPHVKVDFNGQERHGREDMIKIWHYLGVKHVFFRDIRVQGEFLVVHSEDNVDGKTFQIRYLVFKINGRWFLEEVEFD”, for which the protease stability score was found to be 0.942.

Consider “SDEEEEERRIAHELRHFWETGDEDAFRDMLDPHTRLQIDINGRHFHLHGREHIVRHLSEVWNKFGVKHLKFHDHHVVNGVTHMDGEENIGDKRRRVRIIIIVVNGRVRMVRIQIE”, for which the protease stability score was found to be 1.45.

“SDEEEEVREYYEKWFHDVYTGDEDSFRDMLDPHVKVEINGKELHGRENAEKFEKRMGVDHLNIRRFHFWDGRLEIRGESEYGDKRFKTEIHAIKINGRWVVKLIRFE” displayed a protease stability score of 0.761.

“SDEEEILRRLMQEYYEIFFTGNEEFLHRLADPHVRFLVNGQWYHGREQFTRMFVELLEKLGAKHIELDRHTVRIIDGRIEIIIHTTIKVDGKEHTMHIIVNVEKINGRWILRSMEMEVR” showed a protease stability score of 1.34.

The sequence “SDEEELYEILLEIELKSAMTGDWRNLKDLLDPDTRIHFNGVEIHGREHAEKHLKRYDVDKIEDVRYRDMRFQGDKARVHGEVRILLQFDGRRMEIDTTIQVINYKVNGVWIIESLHFE” showed a protease stability score of 1.24.

In turn, “SDEEENLKEWVRLMYESARTGDEDSTSHLIDPNVRIHVNGRELHGRELVLEHLRRIDHVELRIHIREVETYDGRLKVEGELREIMIFNGKRVDLRIDTVFINLKVNGRWVLKEVHII” displayed a protease stability score of 1.34.

For “SDEEERIRRVAEHILHLILTGDEDRWEDMMDPNVRVHIDWNGVKIHLHGREKAAEFFKRFKNIRIEIHSVRIIGEKNDSDERLHVNGQTRDLHNHIIVVNGRIEHMEIRVR”, the protease stability score came out at 2.66.

“SDEEERLERVSELLLHAIETGDWRILAELADPHVRLEIGDKEIHGREIVVDLIRKEYDKYKNMRITNEDFDVQGNKTEWHVNIHIGDKEVRIHIYNVVINGKIRRRHIHIR” showed a protease stability score of 1.23.

Take “SDEEERLRDFVRRYMESMRTGDEDTWRTMLDPNVQVTINGRWEIGRESAYEFLWTVFTHLGVDHLELDHFHLYGEKIELDLTAFVNGQTKKVRVELIVIDGKLKSEKIHDK”: the protease stability score amounted to 1.12.

As for “SDEEERTRTAIEQLIELRLTGDEEMLHKLVDPHYRLHFIVDGRDLDFIGWRDFQRIFHEETKKFKNMRIEWRHVDIVNGVVTVHIELKIGDKRDEIDLFFFKINGRWILKSVEVHRR”, the protease stability score was 1.47.

“SDEEESFFTMLELFVEYLHTGDEHEFKKLADPHVRSLYDGVELHGREWFIRKFREMRVKSLHFHHSDIHIINGRARARIDVRLDGEVNGVEDLTETEIRLEVHKVDGQWVFHSVEIHRK” gave a protease stability score of 1.33.

Consider “SDEEEYTRKAIERWIKDFITGNEDLIRKFADPNTRMEWNGKEHHGMELMVKVLKREIHEIRLQKFDVHHVEIYNGRAIVHLKLHGTIDGREETLDVIIFSEKINGQWRVEQLSIR”, for which the protease stability score amounted to 1.39.

The sequence “SDEEHELREATEILLHLFLTGDEESLDNLADPNVRVDYNGVKYHGREVLSFWLHEELKHARIHIRIRSLHLVGEFLHIQGEVRIEQGEFRRRHDMHWIIEKVDGRWIIRYVLIK” gave a protease stability score of 1.56.

Sequence “SDEEHIVQVALKNYIKAVMTGDEHLFNELMDPNTRNDINGVIYHGMEEWVKSVEELGIERFTIHEVYEHDFRVYNGQVDIHVRVDREVNGRRINDEVEIVAYKVNGRWQLRSLIFR” showed a protease stability score of 1.39.

As to “SDEEHLAERASKEWRHSVRTGDEHQLHEMIDPHVKLIVGDKEFHGREHFLEHLKHLRIKNVDIKRIRIIGDKVEIDSELHGHVNGVEIRTREHIHIEKIDGRWVITEVIWV”, the protease stability score was found to be 0.955.

Take “SDEEHQWELAFRFWITILKTGDEDHFERLADPHYLLQIGDKHVVGREQIAREIEKYRRELGVDHSHFDVDHIQVVGDKVEIQGSLEIRVGDKSIHHTTRTIIRKVDGRWLLKKVHFG”: the protease stability score was 1.23.

As to “SDEEHRREKLNRIMLEWWMTGDWKHIEHLADPNVRLEMNIGNKHLDHHGREELSRLIIELLKELGFKHSHLEHVEIQGDKFISIVRLHVNGVHFIVHIESVIINGKLTELRIEIRKV”, the protease stability score worked out at 1.21.

Turning to “SDEEHSLKRMWKELAHAMMTGDEHTVTELLDPHVRFEYGEFDLHGREDWLEFLREIRILIHHFEVRHINNFENHINTDGFTDIIIIIGDKDIRRRRKTQYFQVKVNGQWLFRSIHVR”, the protease stability score stood at 1.41.

For the sequence “SDEEHVSRIALEIDIWLKETGDEHLLRHYLDPDTRSHFNGRSVHGMDILIKILHHWRIHDLEVKRMHLVGDFVELDIRVDGTFNGRRINMEQIIHVEKIDGQWHLKEVRIH”, the protease stability score worked out at 1.54.

The sequence “SDEEIAAKYMEDELQKSLKTGDEQKFRHLADPNVRSDINGVELIGWELIIKYWREIRSKVEDVRLKRVDVQGDKIHLHGLVDVEINVNGVRTREHLESHFVIVKIDGRWYVHSIEIR” came in with a protease stability score of 0.659.

Regarding “SDEEKDAKRAIEIYLRMVETGDEETSKELMDPNVRMHVNGQDVHGRERVAKLFHELSRRIDHHEVRLDRWDVQGDKLIIHTEIIWRVNGVEIRRRTLIIMRKFNGRWYIEELNIE”, the protease stability score turned out to be 0.181.
